Experimental data: article PMC3317979

Tests used:
[1] = tested on: 933W repressor (cI) (bacteriophage 933W (lambdoid prophage of E. coli O157:H7 EDL933)); test: EMSA
[2] = tested on: 933W repressor S41A (bacteriophage 933W (lambdoid prophage of E. coli O157:H7 EDL933)); test: EMSA
[3] = tested on: 933W repressor K46A (bacteriophage 933W (lambdoid prophage of E. coli O157:H7 EDL933)); test: EMSA
[4] = tested on: 933W repressor (cI) (bacteriophage 933W (lambdoid prophage of E. coli O157:H7 EDL933)); test: EMSA (direct and competition)
[5] = tested on: 933W repressor (cI) (bacteriophage 933W (lambdoid prophage of E. coli O157:H7 EDL933)); test: competition EMSA
[6] = scale: fold affinity vs S41A on consensus

In the case of 933W OR1, the binding signal (fold higher affinity than consensus) [1] is reported as 10.
933W consensus operator gave a binding signal ([2]; scale: fold lower affinity than wild-type repressor) of over 10, a Kd [3] of 6.1 µM and a Kd [4] of 0.0048 µM.
For consensus 1A (symmetric C-G to A-T), the binding signal (fold change in affinity vs consensus) [5] was under 2.
Work on consensus 2A (symmetric, G-C to A-T) yielded a binding signal [2, 6] of 1 and a binding signal (fold lower affinity than consensus) [5] of over 6.
Work on consensus 2T (symmetric, G-C to T-A) yielded a binding signal [2, 6] of 1 and a binding signal (fold lower affinity than consensus) [5] of over 6.
With consensus 3C (symmetric A-T to C-G) the binding signal (fold lower affinity than consensus) [5] was over 6.
consensus 3G (symmetric A-T to G-C) showed a binding signal (fold lower affinity than consensus) [5] of 2.
Substance consensus 3T (symmetric A-T to T-A) has a binding signal (fold higher affinity than consensus) [5] of over 3.
In the case of consensus 4 G-5meC in one half-site, the binding signal (fold affinity vs consensus (identical)) ([1]; 5-methylcytosine paired with G at position 4) is reported as 1.
In the case of consensus 4 G-C in one half-site, the binding signal (fold lower affinity than consensus) [1] is reported as over 5.
With consensus 5 C-C7G in one half-site the binding signal (fold lower affinity than consensus) ([1]; 7-deazaguanine replaces G at position 5) was over 5.
consensus 6C (symmetric T-A to C-G) gave a binding signal (fold higher affinity than consensus) [5] of over 2.5.
consensus 7'A (C-G to A-T at 7' only) showed a binding signal (fold higher affinity than consensus) [5] of over 4.
Work on consensus 8G (central A-T to G-C) yielded a binding signal (fold lower affinity than consensus) [5] of 3.
Work on nonspecific DNA (NS) yielded a Kd [3] of 6.1 µM and a Kd [5] of 6.1 µM.
